Data as given in patent US20250295734A1, “ANTICOAGULANT PROTEINS AND THEIR USE FOR TREATING DISEASES ASSOCIATED WITH THE ACTIVATION OF NEUTROPHILS” (BIOXODES, priority 2018, published 2025).
Entries after “also recorded” stand apart in the source; their conditions may differ.

Columns and labels:
FXIIa = biological target: T1, FXIIa (Homo sapiens, UniProt P00748); conditions: cited from earlier work
T1 construct: The resulting α-FXIIa has a heavy chain of 50 kDa, connected to a light chain of 28 kDa
T1 sequence (P00748 20-372 limits assumed): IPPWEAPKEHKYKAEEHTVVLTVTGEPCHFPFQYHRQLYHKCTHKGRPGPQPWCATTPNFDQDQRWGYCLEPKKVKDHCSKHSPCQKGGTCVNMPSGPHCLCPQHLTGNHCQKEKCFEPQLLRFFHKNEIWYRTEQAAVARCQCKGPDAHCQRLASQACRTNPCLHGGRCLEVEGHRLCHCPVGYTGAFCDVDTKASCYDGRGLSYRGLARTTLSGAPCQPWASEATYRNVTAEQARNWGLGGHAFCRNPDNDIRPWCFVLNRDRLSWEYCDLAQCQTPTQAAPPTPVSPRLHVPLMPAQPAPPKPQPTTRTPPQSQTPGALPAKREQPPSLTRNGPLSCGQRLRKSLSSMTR
T1 sequence (P00748 373-615 limits assumed): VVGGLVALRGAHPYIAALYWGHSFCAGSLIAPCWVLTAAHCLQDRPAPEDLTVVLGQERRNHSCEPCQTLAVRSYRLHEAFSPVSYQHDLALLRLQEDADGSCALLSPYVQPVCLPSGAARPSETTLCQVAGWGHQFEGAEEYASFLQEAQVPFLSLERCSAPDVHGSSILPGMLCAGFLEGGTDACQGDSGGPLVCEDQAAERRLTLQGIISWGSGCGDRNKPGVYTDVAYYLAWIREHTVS

[1] = rodents; pharmacological therapeutic active dose; cited from earlier work
[2] = test system: neutrophil elastase activity; test: Laser-induced vessel wall injury: neutrophil elastase activity; assay type: in vivo, mice (C57BL/6JRj); conditions: iv bolus 20.5 mg/kg + infusion 3.7 mg/kg/h
Protocol: (§1) Ir-CPI was administered intravenously as a bolus (20.5 mg/kg) immediately followed by a continuous infusion at a rate of 3.7 mg/kg/h (see Table 1 below). Due to fast distribution and elimination of Ir-CPI in the mice (t1/2α=14 min and t1/2β=236 min), the combination of the bolus and the infusion was chosen in order to maintain a constant Ir-CPI concentration into the blood.
(§2) Vessel wall injury was induced with a Micropoint Laser System (Photonics Instruments) focused through the microscope objective, parfocal with the focal plane and aimed at the vessel wall, as previously described (Dubois et al., 2006). Typically, 1 or 2 pulses were required to induce vessel wall injury.
(§3) Multiple thrombi were studied in a single mouse, with new thrombi formed upstream of earlier thrombi to avoid any contribution from thrombi generated earlier in the animal under study. Laser-beam injuries were done at various time after the start of test-item administration (+5 min up to about 150 min after bolus administration of Ir-CPI or NaCl (control)).
Image analysis was performed using Slidebook 4.1 (Intelligent Imaging Innovations). Fluorescence data were captured digitally at up to 50 frames per second and analyzed as previously described (Falati et al., 2002). The kinetics of thrombus formation were analyzed by determining median fluorescence values over time in a minimum number of 20 thrombi. […]

kallikrein = kallikrein (Homo sapiens, UniProt P03952); conditions: cited from earlier work
intrinsic pathway = conditions: in vitro; dose-dependent; cited from earlier work
thrombin = thrombin (Homo sapiens, UniProt P00734); conditions: cited from earlier work
[3] = test system: polymorphonuclear neutrophils (PMNs); test: Laser-induced vessel wall injury: PMN accumulation (anti-Ly6G); assay type: in vivo, mice (C57BL/6JRj); conditions: iv bolus 20.5 mg/kg + infusion 3.7 mg/kg/h
Protocol: as §1, §2, §3
Image analysis was performed using Slidebook 4.1 (Intelligent Imaging Innovations). Fluorescence data were captured digitally at up to 50 frames per second and analyzed as previously described (Falati et al., 2002). The kinetics of thrombus formation were analyzed by determining median fluorescence values over time in a minimum number of 20 thrombi.
Detection of PMNs in vivo was performed using PE-labelled anti-Ly6G antibody.
To determine whether Ir-CPI has an impact on the accumulation of PMNs at the site of injury, the accumulation of PMNs on the injured vessel wall was monitored using a PE-fluorescently labeled antibody directed against Ly6G (FIG. 5).

[4] = test system: extrinsic or common pathway; conditions: in vitro; cited from earlier work
[5] = test system: venous thrombus formation; conditions: dose-dependent; cited from earlier work
FXII zymogen = biological target: T2, FXII zymogen (Homo sapiens, UniProt P00748); conditions: cited from earlier work
T2 sequence (P00748 20-615): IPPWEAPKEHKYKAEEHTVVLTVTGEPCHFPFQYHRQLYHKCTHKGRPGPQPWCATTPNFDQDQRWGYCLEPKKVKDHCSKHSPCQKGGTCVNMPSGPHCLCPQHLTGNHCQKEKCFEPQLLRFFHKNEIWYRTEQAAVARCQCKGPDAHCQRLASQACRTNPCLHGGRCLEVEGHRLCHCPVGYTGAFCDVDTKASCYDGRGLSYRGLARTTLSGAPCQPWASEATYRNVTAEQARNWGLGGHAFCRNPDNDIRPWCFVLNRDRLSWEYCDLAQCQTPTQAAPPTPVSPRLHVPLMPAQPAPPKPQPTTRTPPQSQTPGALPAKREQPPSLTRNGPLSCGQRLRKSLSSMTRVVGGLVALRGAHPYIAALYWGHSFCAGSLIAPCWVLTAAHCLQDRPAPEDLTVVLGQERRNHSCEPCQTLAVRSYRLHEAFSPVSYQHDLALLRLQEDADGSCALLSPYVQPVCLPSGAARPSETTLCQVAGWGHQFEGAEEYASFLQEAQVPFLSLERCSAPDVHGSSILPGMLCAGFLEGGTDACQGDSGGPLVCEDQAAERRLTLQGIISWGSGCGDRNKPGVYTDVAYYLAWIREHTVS

plasminogen = plasminogen (Homo sapiens, UniProt P00747); conditions: cited from earlier work
plasminogen, sequence (P00747 20-810 limits assumed, species assumed): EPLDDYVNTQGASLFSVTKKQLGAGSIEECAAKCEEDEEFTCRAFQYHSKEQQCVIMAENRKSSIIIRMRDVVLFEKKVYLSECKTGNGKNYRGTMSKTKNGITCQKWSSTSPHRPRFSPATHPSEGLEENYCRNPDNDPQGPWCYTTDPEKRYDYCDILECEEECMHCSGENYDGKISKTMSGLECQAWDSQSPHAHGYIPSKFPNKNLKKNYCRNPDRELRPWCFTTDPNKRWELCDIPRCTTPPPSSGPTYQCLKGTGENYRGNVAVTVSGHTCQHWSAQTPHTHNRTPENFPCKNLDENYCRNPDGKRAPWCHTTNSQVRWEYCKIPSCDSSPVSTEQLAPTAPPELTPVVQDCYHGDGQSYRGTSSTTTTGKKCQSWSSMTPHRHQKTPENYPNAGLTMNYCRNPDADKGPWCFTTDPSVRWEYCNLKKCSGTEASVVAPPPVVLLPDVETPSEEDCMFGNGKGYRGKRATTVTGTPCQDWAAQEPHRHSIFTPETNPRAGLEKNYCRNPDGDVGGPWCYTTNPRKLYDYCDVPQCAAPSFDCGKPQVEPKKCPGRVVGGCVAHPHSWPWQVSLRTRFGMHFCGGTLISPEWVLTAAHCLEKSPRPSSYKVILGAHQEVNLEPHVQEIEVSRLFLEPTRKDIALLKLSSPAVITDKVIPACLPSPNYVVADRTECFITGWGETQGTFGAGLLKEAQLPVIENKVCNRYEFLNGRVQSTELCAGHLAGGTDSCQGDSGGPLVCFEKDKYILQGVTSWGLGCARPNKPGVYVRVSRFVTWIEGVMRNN

kallikrein, sequence (P03952 20-390 limits assumed): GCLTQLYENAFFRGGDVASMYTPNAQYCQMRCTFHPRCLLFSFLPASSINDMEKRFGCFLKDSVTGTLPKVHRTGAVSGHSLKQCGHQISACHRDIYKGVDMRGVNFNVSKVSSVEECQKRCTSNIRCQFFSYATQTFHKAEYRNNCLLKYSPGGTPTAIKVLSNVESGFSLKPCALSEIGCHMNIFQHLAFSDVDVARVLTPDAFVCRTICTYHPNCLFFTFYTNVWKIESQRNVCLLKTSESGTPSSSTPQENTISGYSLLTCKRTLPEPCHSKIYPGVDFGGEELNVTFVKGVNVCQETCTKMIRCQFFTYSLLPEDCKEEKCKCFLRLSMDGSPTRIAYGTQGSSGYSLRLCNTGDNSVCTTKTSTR
kallikrein, sequence (P03952 391-638 limits assumed): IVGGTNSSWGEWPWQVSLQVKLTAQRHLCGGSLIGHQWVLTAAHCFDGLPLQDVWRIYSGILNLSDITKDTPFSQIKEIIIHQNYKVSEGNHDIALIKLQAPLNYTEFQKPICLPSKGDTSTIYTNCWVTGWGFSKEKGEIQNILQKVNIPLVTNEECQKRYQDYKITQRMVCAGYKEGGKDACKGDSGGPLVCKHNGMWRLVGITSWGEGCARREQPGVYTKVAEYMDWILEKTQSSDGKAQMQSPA

B1: Ir-CPI: Ixodes ricinus salivary gland polypeptide, contact phase inhibitor, MW=7660 Da; sequence SEQ ID NO: 1 or SEQ ID NO: 2 (protein)
chain: ANHKGRGRPAKCKLPPDDGPCRARIPSYYFDRKTKTCKEFMYGGCEGNENNFENITTCQEECRAKKV
- binding to FXIIa (FXIIa): binds
- bleeding [1]: does not increase bleeding
- signal corresponding to neutrophil elastase activity compared to control mice [2]: drastically reduced
- binding to kallikrein (kallikrein): binds
- activated Partial Thromboplastin Time (aPTT) (intrinsic pathway): prolong
- activity on thrombin (thrombin): totally inactive
- maximal median of integrated PMN fluorescence (anti-Ly6G) ([3]; at T 261 sec): 3.02×10^6 AU
- median of integrated PMN fluorescence ([3]; at T 270 sec (end of measurement)): 2.78×10^6 AU
- PMN accumulation compared to control mice ([3]; first 4.5 min after laser injury): drastically decreased
- Prothrombin Time (PT) [4]: no effect
- Thrombin Time (TT) [4]: no effect
- dilute Russell's Viper Venom time (dRVVT) [4]: no effect
- venous thrombus formation [5]: reduces venous thrombus formation
- binding to FXII zymogen (FXII zymogen): but not to their zymogen forms; also recorded: unable to bind directly
- binding to plasminogen (plasminogen): unable to bind
